Test results taken from publication doi:10.1101/2020.04.30.069369.

Assays:
[1] = target: Streptococcus thermophilus Rgg3 (S. thermophilus); assay: cryo-EM structure
[2] = target: Streptococcus dysgalactiae Rgg2 (S. dysgalactiae); assay: crystal structure
[3] = target: T1, Rgg3St (Streptococcus thermophilus, UniProt Q5M4D0 1-284); assay: X-ray crystallography
T1 sequence: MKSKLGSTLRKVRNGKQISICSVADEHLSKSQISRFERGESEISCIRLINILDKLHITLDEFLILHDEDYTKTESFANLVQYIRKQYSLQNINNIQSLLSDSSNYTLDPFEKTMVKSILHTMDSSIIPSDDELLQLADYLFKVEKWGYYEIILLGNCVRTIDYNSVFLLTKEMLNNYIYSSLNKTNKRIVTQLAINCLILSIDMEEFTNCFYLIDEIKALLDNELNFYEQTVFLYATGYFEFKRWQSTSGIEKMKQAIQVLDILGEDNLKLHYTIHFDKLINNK

Streptococcus thermophilus Rgg3 (natural protein)
stoichiometry N [1]: 2

Streptococcus dysgalactiae Rgg2 (natural protein)
stoichiometry N [2]: 2

B1: Rgg3 box (pSHP3DNA) (dsDNA)
DNA 1: CATAATTTTCCCATTTCCCCAACAAAAAAG
DNA 2: TTTTTGTTGGGGAAATGGGAAAATTATGCT
binding result [3]: binds
